Holding throughout (test): competitive ELISA
On the technique in general: In an ELISA, binding on a coated surface is turned into a signal by an enzyme label.

Test [1] has as its target T1, human tissue factor pathway inhibitor (TFPI) (human, UniProt P10646 29-304, limits assumed).
T1 construct: bought; also called hTFPI; human TFPI
T1 sequence (looked up): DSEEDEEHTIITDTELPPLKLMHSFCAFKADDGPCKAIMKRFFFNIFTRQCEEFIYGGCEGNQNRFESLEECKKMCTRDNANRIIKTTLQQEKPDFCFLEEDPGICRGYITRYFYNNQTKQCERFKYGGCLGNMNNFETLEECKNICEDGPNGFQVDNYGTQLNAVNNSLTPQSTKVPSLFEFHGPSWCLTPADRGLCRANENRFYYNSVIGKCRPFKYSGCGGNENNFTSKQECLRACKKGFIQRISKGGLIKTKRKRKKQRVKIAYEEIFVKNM

The target in test [2] is T2, mouse tissue factor pathway inhibitor (TFPI) (mouse, UniProt O54819 29-289, limits assumed).
T2 construct: bought; also called mTFPI; murine TFPI
T2 sequence (looked up): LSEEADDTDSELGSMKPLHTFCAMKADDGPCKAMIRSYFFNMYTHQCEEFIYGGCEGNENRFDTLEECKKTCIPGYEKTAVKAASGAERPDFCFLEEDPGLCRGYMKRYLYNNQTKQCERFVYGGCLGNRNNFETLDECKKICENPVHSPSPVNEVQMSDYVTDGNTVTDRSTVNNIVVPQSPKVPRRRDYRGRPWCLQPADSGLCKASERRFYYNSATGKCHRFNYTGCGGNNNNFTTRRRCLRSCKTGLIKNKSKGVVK

The target of test [3] is T1, human tissue factor pathway inhibitor …. This is another data set of the same source.
Test [4] has as its target T2, mouse tissue factor pathway inhibitor …. This is another data set of the same source.

B1: 4B7 HC N32D+K55Y+D62R+Y112D/LC S32R+D33F+N35I+D97T (Fab, V domains shown)
VH: QVQLQQSGPGLVKPSQTLSLTCAISGDSVSSDSAAWSWIRQSPGRGLEWLGIIYYRSKWYNRYAVSVKSRITINPDTSKNQFSLQLNSVTPEDTAVYYCARWHSDKHWGFDDWGQGTLVTVSS
VL: DIVMTQSPLSLPVTPGEPASISCRSSQSLVFRFGITYLNWYLQKPGQSPQLLIYKGSNRASGVPDRFSGSGSGTDFTLKISRVEAEDVGVYYCQQYTSYPLTFGQGTKVEIKR
As for B1, the results for the variant/HC_D62R in test [1] and in test [2] were 25.6 ratio and 42.8 ratio, respectively.

B2: 4B7 HC Q1E+N32D+G44S+K55Y+D62R+Y112D/LC V30L+S32R+N35I+T36N (Fab, V domains shown)
VH: EVQLQQSGPGLVKPSQTLSLTCAISGDSVSSDSAAWSWIRQSPSRGLEWLGIIYYRSKWYNRYAVSVKSRITINPDTSKNQFSLQLNSVTPEDTAVYYCARWHSDKHWGFDDWGQGTLVTVSS
VL: DIVMTQSPLSLPVTPGEPASISCRSSQSLLFRDGINYLNWYLQKPGQSPQLLIYKGSNRASGVPDRFSGSGSGTDFTLKISRVEAEDVGVYYCQQYDSYPLTFGQGTKVEIKR
For the molecule B2, the variant/HC_D62R in test [1] is 23 ratio; in test [2] it was 9.9 ratio.

B3: 4B7 HC Q1E+N32D+D62R+Y112D/LC S32R+D33F+N35I+D97T (Fab, V domains shown)
VH: EVQLQQSGPGLVKPSQTLSLTCAISGDSVSSDSAAWSWIRQSPGRGLEWLGIIYKRSKWYNRYAVSVKSRITINPDTSKNQFSLQLNSVTPEDTAVYYCARWHSDKHWGFDDWGQGTLVTVSS
VL: DIVMTQSPLSLPVTPGEPASISCRSSQSLVFRFGITYLNWYLQKPGQSPQLLIYKGSNRASGVPDRFSGSGSGTDFTLKISRVEAEDVGVYYCQQYTSYPLTFGQGTKVEIKR
Take B3: the variant/HC_D62R in test [1] worked out at 26.7 ratio; in test [2] it was 39.8 ratio.

B4: 4B7 HC Q1E+N32D+G44S+K55Y+D62R+Y112D/LC V30L+S32R+D33F+N35I+T36N+D97T (Fab, V domains shown)
VH: EVQLQQSGPGLVKPSQTLSLTCAISGDSVSSDSAAWSWIRQSPSRGLEWLGIIYYRSKWYNRYAVSVKSRITINPDTSKNQFSLQLNSVTPEDTAVYYCARWHSDKHWGFDDWGQGTLVTVSS
VL: DIVMTQSPLSLPVTPGEPASISCRSSQSLLFRFGINYLNWYLQKPGQSPQLLIYKGSNRASGVPDRFSGSGSGTDFTLKISRVEAEDVGVYYCQQYTSYPLTFGQGTKVEIKR
Turning to B4, the variant/HC_D62R in test [1] was determined as 20.4 ratio; in test [2], 29.4 ratio.

B5: 4B7 HC Q1E+N32D+G44S+K55Y+D62R+Y112D/LC S32R+D33F+N35I+D97T (Fab, V domains shown)
VH: EVQLQQSGPGLVKPSQTLSLTCAISGDSVSSDSAAWSWIRQSPSRGLEWLGIIYYRSKWYNRYAVSVKSRITINPDTSKNQFSLQLNSVTPEDTAVYYCARWHSDKHWGFDDWGQGTLVTVSS
VL: DIVMTQSPLSLPVTPGEPASISCRSSQSLVFRFGITYLNWYLQKPGQSPQLLIYKGSNRASGVPDRFSGSGSGTDFTLKISRVEAEDVGVYYCQQYTSYPLTFGQGTKVEIKR
In the case of B5, the variant/HC_D62R in test [1] worked out at 26.3 ratio; in test [2], 45.1 ratio.

B6: 4B7 HC N32D+S37N+D62R+Y112D/LC S32R+D33F+N35I+D97T (Fab, V domains shown)
VH: QVQLQQSGPGLVKPSQTLSLTCAISGDSVSSDSAAWNWIRQSPGRGLEWLGIIYKRSKWYNRYAVSVKSRITINPDTSKNQFSLQLNSVTPEDTAVYYCARWHSDKHWGFDDWGQGTLVTVSS
VL: DIVMTQSPLSLPVTPGEPASISCRSSQSLVFRFGITYLNWYLQKPGQSPQLLIYKGSNRASGVPDRFSGSGSGTDFTLKISRVEAEDVGVYYCQQYTSYPLTFGQGTKVEIKR
Turning to B6, the variant/HC_D62R in test [1] was found to be 1.9 ratio. In addition, the binding result in test [2] is “no binding”.

B7: 2A8 HC G33A+S35D+S55R+K99L/LC Y48F+N51V+D91W (Fab, V domains shown)
VH: QVQLVESGGGLVQPGGSLRLSCAASGFTFRSYAMDWVRQAPGKGLEWVSSIRGSRSSTYYADSVKGRFTISRDNSKNTLYLQMNSLRAEDTAVYYCARLYRYWFDYWGQGTLVTVSS
VL: DIELTQPPSVSVAPGQTARISCSGDNLRNYYAHWYQQKPGQAPVVVIFYDVNRPSGIPERFSGSNSGNTATLTISGTQAEDEADYYCQSWWDGVPVFGGGTKLTVLG
Turning to B7, the variant/HC_K99L came out at 16 ratio in test [3] and 14.7 ratio in test [4].

B8: 2A8 HC M34I+S35D+S55R+K99L/LC Y48F+N51V+D91W (Fab, V domains shown)
VH: QVQLVESGGGLVQPGGSLRLSCAASGFTFRSYGIDWVRQAPGKGLEWVSSIRGSRSSTYYADSVKGRFTISRDNSKNTLYLQMNSLRAEDTAVYYCARLYRYWFDYWGQGTLVTVSS
VL: DIELTQPPSVSVAPGQTARISCSGDNLRNYYAHWYQQKPGQAPVVVIFYDVNRPSGIPERFSGSNSGNTATLTISGTQAEDEADYYCQSWWDGVPVFGGGTKLTVLG
For B8, the variant/HC_K99L in test [3] stood at 19.6 ratio; in test [4] it was 18.1 ratio.

B9: 2A8 HC I51D+S54F+K99L/LC D91W (Fab, V domains shown)
VH: QVQLVESGGGLVQPGGSLRLSCAASGFTFRSYGMSWVRQAPGKGLEWVSSDRGFSSSTYYADSVKGRFTISRDNSKNTLYLQMNSLRAEDTAVYYCARLYRYWFDYWGQGTLVTVSS
VL: DIELTQPPSVSVAPGQTARISCSGDNLRNYYAHWYQQKPGQAPVVVIYYDNNRPSGIPERFSGSNSGNTATLTISGTQAEDEADYYCQSWWDGVPVFGGGTKLTVLG
For the molecule B9, the variant/HC_K99L is 6.2 ratio in test [3] and 5.3 ratio in test [4].

B10: 2A8 HC Q1E+R30S+S35D+S55R+S56G+K99L/LC Y48F+N51V+D91W (Fab, V domains shown)
VH: EVQLVESGGGLVQPGGSLRLSCAASGFTFSSYGMDWVRQAPGKGLEWVSSIRGSRGSTYYADSVKGRFTISRDNSKNTLYLQMNSLRAEDTAVYYCARLYRYWFDYWGQGTLVTVSS
VL: DIELTQPPSVSVAPGQTARISCSGDNLRNYYAHWYQQKPGQAPVVVIFYDVNRPSGIPERFSGSNSGNTATLTISGTQAEDEADYYCQSWWDGVPVFGGGTKLTVLG
Take B10: the variant/HC_K99L turned out to be 11.9 ratio in test [3] and 9.3 ratio in test [4].

B11: 2A8 HC G33P+I51D+S54F/LC Y48F+N51V+V96W (Fab, V domains shown)
VH: QVQLVESGGGLVQPGGSLRLSCAASGFTFRSYPMSWVRQAPGKGLEWVSSDRGFSSSTYYADSVKGRFTISRDNSKNTLYLQMNSLRAEDTAVYYCARKYRYWFDYWGQGTLVTVSS
VL: DIELTQPPSVSVAPGQTARISCSGDNLRNYYAHWYQQKPGQAPVVVIFYDVNRPSGIPERFSGSNSGNTATLTISGTQAEDEADYYCQSWDDGVPWFGGGTKLTVLG
In the case of B11, the variant/HC_K99L in test [3] is 0.6 ratio; in test [4], 0.4 ratio.

B12: 2A8 HC Q1E+R30S+S35D+S55G+S56G+K99L/LC Y48F+D91L+V96W (Fab, V domains shown)
VH: EVQLVESGGGLVQPGGSLRLSCAASGFTFSSYGMDWVRQAPGKGLEWVSSIRGSGGSTYYADSVKGRFTISRDNSKNTLYLQMNSLRAEDTAVYYCARLYRYWFDYWGQGTLVTVSS
VL: DIELTQPPSVSVAPGQTARISCSGDNLRNYYAHWYQQKPGQAPVVVIFYDNNRPSGIPERFSGSNSGNTATLTISGTQAEDEADYYCQSWLDGVPWFGGGTKLTVLG
With B12, the variant/HC_K99L in test [3] was 13.6 ratio; in test [4], 10.6 ratio.

B13: 2A8 HC M34K+S35D+S55R+K99L/LC Y48F+N51V+D91W (Fab, V domains shown)
VH: QVQLVESGGGLVQPGGSLRLSCAASGFTFRSYGKDWVRQAPGKGLEWVSSIRGSRSSTYYADSVKGRFTISRDNSKNTLYLQMNSLRAEDTAVYYCARLYRYWFDYWGQGTLVTVSS
VL: DIELTQPPSVSVAPGQTARISCSGDNLRNYYAHWYQQKPGQAPVVVIFYDVNRPSGIPERFSGSNSGNTATLTISGTQAEDEADYYCQSWWDGVPVFGGGTKLTVLG
Turning to B13, the variant/HC_K99L is 11.2 ratio in test [3] and 11.6 ratio in test [4].

B14: 2A8 HC G33P+S35D+S54F+K99L/LC Y48F+N52G (Fab, V domains shown)
VH: QVQLVESGGGLVQPGGSLRLSCAASGFTFRSYPMDWVRQAPGKGLEWVSSIRGFSSSTYYADSVKGRFTISRDNSKNTLYLQMNSLRAEDTAVYYCARLYRYWFDYWGQGTLVTVSS
VL: DIELTQPPSVSVAPGQTARISCSGDNLRNYYAHWYQQKPGQAPVVVIFYDNGRPSGIPERFSGSNSGNTATLTISGTQAEDEADYYCQSWDDGVPVFGGGTKLTVLG
On to B14, for which the variant/HC_K99L turned out to be 6.2 ratio in test [3] and 2.3 ratio in test [4].

For the origin of these results see patent publication USRE47150 (Bayer, dated 2018).
